This is an account of results in US20240327502A1 (Merck Sharp & Dohme, published 2024).

Experiment [1] concerns the target T1, Processed stabilized hMPV PreF trimer (115BV) (human metapneumovirus, strain B2).
T1 construct: also called Processed hMPV PreF trimer; processed PreF
Nature of the experiment: BLI, ratio to unprocessed PreF trimer.

The target of experiment [2] is T2, Unprocessed hMPV PreF trimer (human metapneumovirus, strain B2).
T2 construct: also called Unprocessed hMPV WT PreF trimer; unprocessed hMPV PreF trimeric antigen
Nature of the experiment: BLI, mAb on anti-human Fc sensor.

For experiment [3], the target named is T3, hMPV PostF trimer (human metapneumovirus, strain B2).
T3 construct: also called MPV PostF (dPFv1)
The experiment is described as follows: BLI, mAb on anti-human Fc sensor.

Experiment [4] addresses T1, Processed stabilized hMPV PreF trimer …. Nature of the experiment: BLI, mAb on anti-human Fc sensor.

B1: M4C03 (antibody, V domains shown)
VH: EVQLVESGGTLVQPGGSLRLSCAASGFRFNAFSMNWVRQAPGKGLEWVSYIDSRSNIIYYADSVKGRFTISRDNAKTSLYLRMSSLRDEDTAVYYCAKALCVVNYDFWSGLLGCAMDVWGQGTTVTVSS
VL: QSVLTQPPSVSGAPGQRVTISCTGTTSNIGAGFDVHWYQQVPGTAPKLLIYANTDRPSGVPDRFSASKSGTSASLAITGLQVEDEAHYYCQTYDTTLSGSTVFGGGTKLTVL
notes: IgG
Consider B1, for which the “processed/unprocessed PreF trimer binding ratio” value in experiment [1] came to 0.12. Also, the results for the Octet binding response in experiment [2], in experiment [3] and in experiment [4] were 0.263 nm, 0.506 nm and 0.0323 nm, respectively.

B2: M4C08 (antibody, V domains shown)
VH: EVQLVESGGTLVQPGGSLRLSCAASGFKFNAFSMNWVRQAPGKGLEWVSYIDSRSNIIYYADSVKGRFTISRDNAKNSLYLRMSSLRDEDTAVYYCAKALCVVNYDFWSGLLGCAMDVWGQGTTVTVSS
VL: QSVLTQPPSVSGAPGQRVTISCTGNTSNIGAGFDVHWYQQVPGTAPKLLIYANTDRPSGVPDRFSASKSGTSASLAITGLQAEDEADYYCQTYDRSLSGSTVFGGGTKLTVL
notes: IgG
Take B2: the “processed/unprocessed PreF trimer binding ratio” value in experiment [1] was determined as 0.12. Also, the Octet binding response came to 0.222 nm in experiment [2], 0.467 nm in experiment [3] and 0.0268 nm in experiment [4].

B3: M1A04 (antibody, V domains shown)
VH: EVQLVESGGGLVRPGGSLRLSCAASGFNVRNYYMSWVRQAPGKGLEWISVIYGGGTTFYAGSVKGRFTISRDDSKSTLFLQMNSLRADDTAVYYCARDPGTVMSTENLQGMDVWGQGTTVTVSS
VL: DIQMTQSPSSLSASVGDRVTITCRASQTIRSYLNWYQQKPGKAPNLLIYAATSLQSGVPSRFSGSGSGTDFTLTISSLQPEDSATYYCQQSFSTLYSFGQGTRLEIK
notes: IgG
On to B3, for which, in experiment [1], the “processed/unprocessed PreF trimer binding ratio” value came to 1.23. Besides, the Octet binding response in experiment [2] was found to be 0.453 nm; in experiment [3], 0.618 nm; in experiment [4], 0.557 nm.

B4: M2B12 (antibody, V domains shown)
VH: QVQLVESGGGVVQPGRSLRLSCEASGFTFSSSAMHWVRQAPGKGLEWVAIISYHGTNKDYSDSVRGRFTISRDNSKNTLYLQMNGLRGDDTAVYYCAKEAAVSGNFDSWGQGTMVTVSS
VL: QLVLTQSPSASASLGASVKLTCTLISGPSNYAIAWHRQQPQKGPRYLMKVNSDGSHTKGDGIPDRFSGSSSGTERYLIISNLQSEDEADYYCQTWGSGIYVFGPGTKVTVL
notes: IgG
B4: in experiment [1], the “processed/unprocessed PreF trimer binding ratio” value was found to be 1.16. Further, the Octet binding response in experiment [2] is 0.378 nm; in experiment [3] it was 0.445 nm; in experiment [4], 0.438 nm.

B5: M2D01 (antibody, V domains shown)
VH: QVQLQESGPGVVKPSETLSLTCTVSRGAITDYHLNWIRQPPGKGLEWIGYISSSGSTNYNPSLKSRVTISQVMSGTQFSLKLTSMSAADTALYYCASSSGRYWGGALDLWGQGTQVIVSS
VL: DIVMTQSPDSLAVPLGERATINCKSSQSLLYTSNNKNSLAWYQQKPGQPPKLLLFWASTREFRVPDRFSGSGSGTDFTLTISSLQAEDVAVYYCQQYYTAPYTFGPGTKLEIK
notes: IgG
For B5, the “processed/unprocessed PreF trimer binding ratio” value in experiment [1] was 0.19. In addition, the Octet binding response in experiment [2] came out at 0.33 nm; in experiment [3], 0.493 nm; in experiment [4], 0.0622 nm.

B6: M2A11 (antibody, V domains shown)
VH: QVQLQESGPGLVKPSETLSLTCTVSGGSITSHYWSWVRQPPGKGLEWIAYIYYSGSTDYNPSLKSRVTISLDTSKNQVSLRLNSVTTADTAVYFCARCMPLYHVMHVWGHGTTVTVSS
VL: QSVLTQPPSVSGAPGQRVTISCTGSSSDIGAGSDVHWYQQLPGTAPKLLIYGNTNRPSGVPDRFSGSKSGTSASLAITGLQAEDEADYYCQSYDSGLSGYVFGGGTKLTVL
notes: IgG
With B6, in experiment [1], the “processed/unprocessed PreF trimer binding ratio” value turned out to be 0.23. Also, the Octet binding response in experiment [2] is 0.285 nm; in experiment [3], 0.293 nm; in experiment [4], 0.0658 nm.

B7: M2D2 (antibody, V domains shown)
VH: QVQLVQSGAEVKKPGASVKVSCKASGYNFDNYYMSWVRQAPGQGLEWLGIIDPSGGRISYAPKFQGRVTLTRDTSTSTVYMELRGLRFEDTALYYCARLEATHEGPWGQGTLVTVSS
VL: QSVLTQPPSASGTPGQRVTISCSGSNSNIGSSTVNWYQQLPGTAPKLLIYSDNHRPSGVPDRFSGSRSGTSASLVISGLHSEDEADYYCGTWDDGLNGPYVFGTGTKVTVL
notes: IgG
Regarding B7, the “processed/unprocessed PreF trimer binding ratio” value in experiment [1] amounted to 0.97. Also, the Octet binding response is 0.362 nm in experiment [2], 0.454 nm in experiment [3] and 0.351 nm in experiment [4].

B8: M4A06 (antibody, V domains shown)
VH: EVQLVESGGGLVRPGGSLRLSCAASGFSLTTDEVNWVRQAPGKGPEWVSFISASGHTIYYADSVKGRFTISRDNGRNSVYLQMNSLRAEDTAVYYCARVGRLGGVGYYYALGPFDLWGQGTMVTVSS
VL: EIVLTQSPGTLSLSPGERATLSCRASQSITSNYLAWYQQKPGQAPRLLIYGASSRATGIPDRFSGSGSGTDFTLTISRLQPEDFAVYYCQQYGSSLYIFGQGTKLEIK
notes: IgG
B8: the “processed/unprocessed PreF trimer binding ratio” value in experiment [1] amounted to 0.78. Also, the results for the Octet binding response in experiment [2], in experiment [3] and in experiment [4] were 0.36 nm, 0.449 nm and 0.281 nm, respectively.

B9: M4C04 (antibody, V domains shown)
VH: RVTLRESGPALLKPTQTLTLTCTFSGFSLNTYGMSVNWIRQPPGKALEWLSRIDWDGDKYFNTSLKTRLTISKDTSKNQVVLTMTNMEPVDTATYYCAQSVIVPAQSFVSWFDPWGPGTLVTVSS
VL: EIVMTQSPATLSVSPGERATLSCRASQSVRSNLAWYQQKPGQAPRLLIYGASSRATGIPARFSGSGSGTEFTLTISSLQSEDLAIYYCQQYNNWPPGAFGQGTKVEIK
notes: IgG
In the case of B9, in experiment [1], the “processed/unprocessed PreF trimer binding ratio” value was determined as 0.89. Also, the Octet binding response in experiment [2] turned out to be 0.342 nm; in experiment [3], 0.442 nm; in experiment [4], 0.303 nm.

B10: M3D10 (antibody, V domains shown)
VH: QVQLQESGPGLVKPSETLSLTCTVSGGSVSTYYWTWIRQPPGKGLDWIGYIYHNGNINYNPSLKSRVTMSVDTSKNQFSLKLTSVTAADTALYYCATVSFIGYSLYYFDRWGQGTLVTVSS
VL: DIQMTQSPSSLSASVGDRVTITCRASQNIASFLNWYQQRPGKAPDLLIYAASTLQTGVPSRFSGSGSGTDFTLAISSLQPEDFATYYCQQSYNTPFTFGQGTKLEIK
notes: IgG
B10: the “processed/unprocessed PreF trimer binding ratio” value in experiment [1] amounted to 1.04. Besides, the figures for the Octet binding response in experiment [2], in experiment [3] and in experiment [4] were 0.38 nm, 0.473 nm and 0.397 nm, respectively.

B11: M2B01 (antibody, V domains shown)
VH: QVQLVESGGGVVQPGKSLRLSCAASGFTFSSHAMDWVRQVPGKGLEWVAVISYDGSNRYYADSVKGRFTISRDTSKNTLYLQMNSLRPEDTAVYYCARDFQPSPMVYGVGYFDYWGQGTLVTVSP
VL: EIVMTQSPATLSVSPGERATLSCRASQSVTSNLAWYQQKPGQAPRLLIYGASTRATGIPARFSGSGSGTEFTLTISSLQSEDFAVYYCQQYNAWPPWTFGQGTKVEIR
notes: IgG
Turning to B11, the “processed/unprocessed PreF trimer binding ratio” value in experiment [1] was determined as 0.19. Also, the results for the Octet binding response in experiment [2], in experiment [3] and in experiment [4] were 0.315 nm, 0.465 nm and 0.0607 nm, respectively.

B12: M3D05 (antibody, V domains shown)
VH: QVQLVQSGAEVKQPGASVKVSCKASGYTFSGYYIQWVRQAPGQGLEWMGWINPNSGGTNFAQKFQGRVTMTSDTSTSAAYMELSSLRSDDTAVYYCVRGQQLTRQYYFGMDVWGQGTTVTVSS
VL: QSVLTQPPSVSGAPGQRVIISCSGSSSNIRSNAVNWYQQLPGKAPKLLIFYDGLLPSGVSDRFSGSKTGNSASLAISGLQSEDEADYYCAAWDDSLNGPVFGGGTKLTVL
notes: IgG
For the molecule B12, the “processed/unprocessed PreF trimer binding ratio” value in experiment [1] stood at 0.25. In addition, the Octet binding response in experiment [2] was found to be 0.338 nm; in experiment [3], 0.539 nm; in experiment [4], 0.0831 nm.
